According to patent US20200199241A1 (Chugai, published 2020):

Each binder was assayed against T1, human FcRn (soluble human FcRn complexed with β2-microglobulin) (human, UniProt P61769 21-119, limits assumed) (assay: SPR, pH 7.0;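 further: antibodies captured on a Protein L sensor chip with human FcRn injected as analyte, KD calculated from fitted association and dissociation rate constants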).
T1 construct: also called hFcRn

Binder | Kd
IgG1-F388 (antibody, EU numbering; copies: 2 + 2) heavy: QVQLQESGPGLVKPSETLSLTCAVSGHSISHDHAWSWVRQPPGEGLEWIGFISYSGITNYNPSLQGRVTISRDNSKNTLYLQMNSLRAEDTAVYYCARSLARTTAMDYWGEGTLVTVSSASTKGPSVFPLAPSSKSTSGGTAALGCLVKDYFPEPVTVSWNSGALTSGVHTFPAVLQSSGLYSLSSVVTVPSSSLGTQTYICNVNHKPSNTKVDKKVEPKSCDKTHTCPPCPAPELLGGPSVFLFPPKPKDTLYISRTPEVTCVVVDVSHEDPEVKFNWYVDGVEVHNAKTKPREEQYNSTYRVVSVLTPAHQDWLNGKEYKCKVSNKALPAPIEKTISKAKGQPREPQVYTLPPSRDELTKNQVSLTCLVKGFYPSDIAVEWESNGQPENNYKTTPPVLDSDGSFFLYSKLTVDKSRWQQGNVFSCSVMHEALHYHYTQKSLSLSP light: not shown | 70 nM
IgG1-F386 (antibody, EU numbering; copies: 2 + 2) heavy: QVQLQESGPGLVKPSETLSLTCAVSGHSISHDHAWSWVRQPPGEGLEWIGFISYSGITNYNPSLQGRVTISRDNSKNTLYLQMNSLRAEDTAVYYCARSLARTTAMDYWGEGTLVTVSSASTKGPSVFPLAPSSKSTSGGTAALGCLVKDYFPEPVTVSWNSGALTSGVHTFPAVLQSSGLYSLSSVVTVPSSSLGTQTYICNVNHKPSNTKVDKKVEPKSCDKTHTCPPCPAPELLGGPSVFLFPPKPKDTLYISRTPEVTCVVVDVSHEDPEVKFNWYVDGVEVHNAKTKPREEQYNSTYRVVSVLTPEHQDWLNGKEYKCKVSNKALPAPIEKTISKAKGQPREPQVYTLPPSRDELTKNQVSLTCLVKGFYPSDIAVEWESNGQPENNYKTTPPVLDSDGSFFLYSKLTVDKSRWQQGNVFSCSVMHEALHYHYTQKSLSLSP light: not shown | 32 nM
IgG1-F396 (antibody, EU numbering; copies: 2 + 2) heavy: QVQLQESGPGLVKPSETLSLTCAVSGHSISHDHAWSWVRQPPGEGLEWIGFISYSGITNYNPSLQGRVTISRDNSKNTLYLQMNSLRAEDTAVYYCARSLARTTAMDYWGEGTLVTVSSASTKGPSVFPLAPSSKSTSGGTAALGCLVKDYFPEPVTVSWNSGALTSGVHTFPAVLQSSGLYSLSSVVTVPSSSLGTQTYICNVNHKPSNTKVDKKVEPKSCDKTHTCPPCPAPELLGGPKVFLFPPKPKDTLYISRTPEVTCVVVDVSHEFPEVKFNWYVDGVEVHEAKTKPREEQYNSTYRVVSVLQVLHADWLNGKEYKCKVSNKALPAPIEKTISKAKGQPREPQVYTLPPSRDELTKNQVSLTCLVKGFYPSDIAVEWESNGQPENNYKTTPPVLDSDGSFFLYSKLTVDKSRWQQGNVFSCSVIHEALHYHYTQKSLSLSP light: not shown | 20 nM
IgG1-F387 (antibody, EU numbering; copies: 2 + 2) heavy: QVQLQESGPGLVKPSETLSLTCAVSGHSISHDHAWSWVRQPPGEGLEWIGFISYSGITNYNPSLQGRVTISRDNSKNTLYLQMNSLRAEDTAVYYCARSLARTTAMDYWGEGTLVTVSSASTKGPSVFPLAPSSKSTSGGTAALGCLVKDYFPEPVTVSWNSGALTSGVHTFPAVLQSSGLYSLSSVVTVPSSSLGTQTYICNVNHKPSNTKVDKKVEPKSCDKTHTCPPCPAPELLGGPSVFLFPPKPKDTLYISRTPEVTCVVVDVSHEDPEVKFNWYVDGVEVHNAKTKPREEQYNSTYRVVSVLTPDHQDWLNGKEYKCKVSNKALPAPIEKTISKAKGQPREPQVYTLPPSRDELTKNQVSLTCLVKGFYPSDIAVEWESNGQPENNYKTTPPVLDSDGSFFLYSKLTVDKSRWQQGNVFSCSVMHEALHYHYTQKSLSLSP light: not shown | 150 nM
IgG1-F395 (antibody, EU numbering; copies: 2 + 2) heavy: QVQLQESGPGLVKPSETLSLTCAVSGHSISHDHAWSWVRQPPGEGLEWIGFISYSGITNYNPSLQGRVTISRDNSKNTLYLQMNSLRAEDTAVYYCARSLARTTAMDYWGEGTLVTVSSASTKGPSVFPLAPSSKSTSGGTAALGCLVKDYFPEPVTVSWNSGALTSGVHTFPAVLQSSGLYSLSSVVTVPSSSLGTQTYICNVNHKPSNTKVDKKVEPKSCDKTHTCPPCPAPELLGGPKVFLFPPKPKDTLYISREPEVTCVVVDVSHEDPEVKFNWYVDGVEVHNAKTKPREEQYNSTYRVVSVLTPLHQDWLNGKEYKCKVSNKALPAPIEKTISKAKGQPREPQVYTLPPSRDELTKNQVSLTCLVKGFYPSDIAVEWESNGQPENNYKTTPPVLDSDGSFFLYSKLTVDKSRWQQGNVFSCSVMHEALHYHYTQKSLSLSP light: not shown | 24 nM
IgG1-F392 (antibody, EU numbering; copies: 2 + 2) heavy: QVQLQESGPGLVKPSETLSLTCAVSGHSISHDHAWSWVRQPPGEGLEWIGFISYSGITNYNPSLQGRVTISRDNSKNTLYLQMNSLRAEDTAVYYCARSLARTTAMDYWGEGTLVTVSSASTKGPSVFPLAPSSKSTSGGTAALGCLVKDYFPEPVTVSWNSGALTSGVHTFPAVLQSSGLYSLSSVVTVPSSSLGTQTYICNVNHKPSNTKVDKKVEPKSCDKTHTCPPCPAPELLGGPKVFLFPPKPKDTLYISRTPEVTCVVVDVSHEDPEVKFNWYVDGVEVHEAKTKPREEQYNSTYRVVSVLTPLHQDWLNGKEYKCKVSNKALPAPIEKTISKAKGQPREPQVYTLPPSRDELTKNQVSLTCLVKGFYPSDIAVEWESNGQPENNYKTTPPVLDSDGSFFLYSKLTVDKSRWQQGNVFSCSVIHEALHYHYTQKSLSLSP light: not shown | 6.9 nM
IgG1-F390 (antibody, EU numbering; copies: 2 + 2) heavy: QVQLQESGPGLVKPSETLSLTCAVSGHSISHDHAWSWVRQPPGEGLEWIGFISYSGITNYNPSLQGRVTISRDNSKNTLYLQMNSLRAEDTAVYYCARSLARTTAMDYWGEGTLVTVSSASTKGPSVFPLAPSSKSTSGGTAALGCLVKDYFPEPVTVSWNSGALTSGVHTFPAVLQSSGLYSLSSVVTVPSSSLGTQTYICNVNHKPSNTKVDKKVEPKSCDKTHTCPPCPAPELLGGPSVFLFPPKPKDTLWISRTPEVTCVVVDVSHEDPEVKFNWYVDGVEVHNAKTKPREEQYNSTYRVVSVLTPDHQDWLNGKEYKCKVSNKALPAPIEKTISKAKGQPREPQVYTLPPSRDELTKNQVSLTCLVKGFYPSDIAVEWESNGQPENNYKTTPPVLDSDGSFFLYSKLTVDKSRWQQGNVFSCSVYHEALHYHYTQKSLSLSP light: not shown | 68 nM
IgG1-F389 (antibody, EU numbering; copies: 2 + 2) heavy: QVQLQESGPGLVKPSETLSLTCAVSGHSISHDHAWSWVRQPPGEGLEWIGFISYSGITNYNPSLQGRVTISRDNSKNTLYLQMNSLRAEDTAVYYCARSLARTTAMDYWGEGTLVTVSSASTKGPSVFPLAPSSKSTSGGTAALGCLVKDYFPEPVTVSWNSGALTSGVHTFPAVLQSSGLYSLSSVVTVPSSSLGTQTYICNVNHKPSNTKVDKKVEPKSCDKTHTCPPCPAPELLGGPSVFLFPPKPKDTLWISRTPEVTCVVVDVSHEDPEVKFNWYVDGVEVHNAKTKPREEQYNSTYRVVSVLTPEHQDWLNGKEYKCKVSNKALPAPIEKTISKAKGQPREPQVYTLPPSRDELTKNQVSLTCLVKGFYPSDIAVEWESNGQPENNYKTTPPVLDSDGSFFLYSKLTVDKSRWQQGNVFSCSVYHEALHYHYTQKSLSLSP light: not shown | 17 nM
IgG1-F391 (antibody, EU numbering; copies: 2 + 2) heavy: QVQLQESGPGLVKPSETLSLTCAVSGHSISHDHAWSWVRQPPGEGLEWIGFISYSGITNYNPSLQGRVTISRDNSKNTLYLQMNSLRAEDTAVYYCARSLARTTAMDYWGEGTLVTVSSASTKGPSVFPLAPSSKSTSGGTAALGCLVKDYFPEPVTVSWNSGALTSGVHTFPAVLQSSGLYSLSSVVTVPSSSLGTQTYICNVNHKPSNTKVDKKVEPKSCDKTHTCPPCPAPELLGGPSVFLFPPKPKDTLWISRTPEVTCVVVDVSHEDPEVKFNWYVDGVEVHNAKTKPREEQYNSTYRVVSVLTPAHQDWLNGKEYKCKVSNKALPAPIEKTISKAKGQPREPQVYTLPPSRDELTKNQVSLTCLVKGFYPSDIAVEWESNGQPENNYKTTPPVLDSDGSFFLYSKLTVDKSRWQQGNVFSCSVYHEALHYHYTQKSLSLSP light: not shown | 36 nM

Results, then the binder that gave them:

Kd | Binder
110 nM | IgG1-F381 (antibody, EU numbering; copies: 2 + 2) heavy: QVQLQESGPGLVKPSETLSLTCAVSGHSISHDHAWSWVRQPPGEGLEWIGFISYSGITNYNPSLQGRVTISRDNSKNTLYLQMNSLRAEDTAVYYCARSLARTTAMDYWGEGTLVTVSSASTKGPSVFPLAPSSKSTSGGTAALGCLVKDYFPEPVTVSWNSGALTSGVHTFPAVLQSSGLYSLSSVVTVPSSSLGTQTYICNVNHKPSNTKVDKKVEPKSCDKTHTCPPCPAPELLGGPSVFLFPPKPKDTLMISRTVEVTCVVVDVSHEDPEVKFNWYVDGVEVHNAKTKPREEQYNSTYRVVSVLAVLHADWLNGKEYKCKVSNKALPAPIEKTISKAKGQPREPQVYTLPPSRDELTKNQVSLTCLVKGFYPSDIAVEWESNGQPENNYKTTPPVLDSDGSFFLYSKLTVDKSRWQQGNVFSCSVLHEALHYHYTQKSLSLSP light: not shown
53 nM | IgG1-F394 (antibody, EU numbering; copies: 2 + 2) heavy: QVQLQESGPGLVKPSETLSLTCAVSGHSISHDHAWSWVRQPPGEGLEWIGFISYSGITNYNPSLQGRVTISRDNSKNTLYLQMNSLRAEDTAVYYCARSLARTTAMDYWGEGTLVTVSSASTKGPSVFPLAPSSKSTSGGTAALGCLVKDYFPEPVTVSWNSGALTSGVHTFPAVLQSSGLYSLSSVVTVPSSSLGTQTYICNVNHKPSNTKVDKKVEPKSCDKTHTCPPCPAPELLGGPKVFLFPPKPKDTLYISRTPEVTCVVVDVSHEDPEVKFNWYVDGVEVHNAKTKPREEQYNSTYRVVSVLQVLHADWLNGKEYKCKVSNKALPAPIEKTISKAKGQPREPQVYTLPPSRDELTKNQVSLTCLVKGFYPSDIAVEWESNGQPENNYKTTPPVLDSDGSFFLYSKLTVDKSRWQQGNVFSCSVIHEALHYHYTQKSLSLSP light: not shown
6.5 nM | IgG1-F399 (antibody, EU numbering; copies: 2 + 2) heavy: QVQLQESGPGLVKPSETLSLTCAVSGHSISHDHAWSWVRQPPGEGLEWIGFISYSGITNYNPSLQGRVTISRDNSKNTLYLQMNSLRAEDTAVYYCARSLARTTAMDYWGEGTLVTVSSASTKGPSVFPLAPSSKSTSGGTAALGCLVKDYFPEPVTVSWNSGALTSGVHTFPAVLQSSGLYSLSSVVTVPSSSLGTQTYICNVNHKPSNTKVDKKVEPKSCDKTHTCPPCPAPELLGGPKVFLFPPKPKDTLYISRTPEVTCVVVDVSHEFPEVKFNWYVDGVEVHEAKTKPREEQYNSTYRVVSVLQPLHQDWLNGKEYKCKVSNKALPAPIEKTISKAKGQPREPQVYTLPPSRDELTKNQVSLTCLVKGFYPSDIAVEWESNGQPENNYKTTPPVLDSDGSFFLYSKLTVDKSRWQQGNVFSCSVIHEALHYHYTQKSLSLSP light: not shown
45 nM | IgG1-F397 (antibody, EU numbering; 'T370Q' as printed, probably T307Q; copies: 2 + 2) heavy: QVQLQESGPGLVKPSETLSLTCAVSGHSISHDHAWSWVRQPPGEGLEWIGFISYSGITNYNPSLQGRVTISRDNSKNTLYLQMNSLRAEDTAVYYCARSLARTTAMDYWGEGTLVTVSSASTKGPSVFPLAPSSKSTSGGTAALGCLVKDYFPEPVTVSWNSGALTSGVHTFPAVLQSSGLYSLSSVVTVPSSSLGTQTYICNVNHKPSNTKVDKKVEPKSCDKTHTCPPCPAPELLGGPKVFLFPPKPKDTLYISRTPEVTCVVVDVSHEFPEVKFNWYVDGVEVHNAKTKPREEQYNSTYRVVSVLQVLHADWLNGKEYKCKVSNKALPAPIEKTISKAKGQPREPQVYTLPPSRDELTKNQVSLTCLVKGFYPSDIAVEWESNGQEENNYKTTPPVLDSDGSFFLYSKLTVDKSRWQQGNVFSCSVIHEALHYHYTQKSLSLSP light: not shown
